Log AUC data for three substances are collected here from patent US20230140293A1.

Holding throughout (assay): ELISA, gp120 on plate
Background: ELISA stands for enzyme-linked immunosorbent assay.

In assay [1] the target is CH505 M11 gp120 (HIV-1).
Assay [2] has as its target CH505 M5 gp120 (HIV-1).
Assay [3] has as its target CH505 transmitted/founder (TF) gp120 (HIV-1).
The target of assay [4] is CH505 w020.14 gp120 (HIV-1).
The target of assay [5] is CH505 w030.21 gp120 (HIV-1).
Assay [6] has as its target CH505 w030.28 gp120 (HIV-1).
In assay [7] the target is CH505 w053.16 gp120 (HIV-1).
In assay [8] the target is CH505 w053.31 gp120 (HIV-1).
The target in assay [9] is CH505 w078.15 gp120 (HIV-1).
For assay [10], the target named is CH505 w078.33 gp120 (HIV-1).
In assay [11] the target is CH505 w100.B6 gp120 (HIV-1).

Consider “CH103 lineage intermediate ancestor IA2 (antibody)”, for which the log AUC was 12.7 log AUC in [1]; 7.8 log AUC in assay [2]; 10.8 log AUC in [3]; 11 log AUC in [4]; 11.5 log AUC in assay [5]; 11.1 log AUC in [6]. For the same substance, the log AUC in assay [7] is 9.3 log AUC; in assay [8] it was 13.3 log AUC; in assay [9], 11.5 log AUC; in [10], 9 log AUC; in assay [11], 12.1 log AUC.

With CH106 (antibody), the log AUC came out at 12.8 log AUC in assay [1]; 8.4 log AUC in [2]; 11.3 log AUC in assay [3]; 11.2 log AUC in assay [4]; 10.9 log AUC in assay [5]; 11.7 log AUC in assay [6]. In addition, the log AUC is 9.8 log AUC in assay [7]; 13.4 log AUC in [8]; 11 log AUC in [9]; 9.5 log AUC in assay [10]; 11.8 log AUC in assay [11].

Consider CH104 (antibody), for which the log AUC in assay [1] came to 12 log AUC; in assay [2], 9 log AUC; in assay [3] it was 10.4 log AUC; in assay [4], 10.4 log AUC; in assay [5], 11.3 log AUC; in assay [6], 10.7 log AUC. The log AUC in assay [7] came to 9.9 log AUC; in [8], 13.7 log AUC; in [9] it was 10.8 log AUC; in assay [10] it was 9 log AUC; in [11], 11 log AUC.
